Results from patent US20220387586A1 (Hoffmann-La Roche, published 2022).

T1: recombinant Human LAG-3 Fc Chimera Protein (R&D Systems, 2319-L3) (human, UniProt P18627 29-450)
T1 construct: Bought protein; also called huLAG3; not shown: Fc part of the chimera
T1 sequence: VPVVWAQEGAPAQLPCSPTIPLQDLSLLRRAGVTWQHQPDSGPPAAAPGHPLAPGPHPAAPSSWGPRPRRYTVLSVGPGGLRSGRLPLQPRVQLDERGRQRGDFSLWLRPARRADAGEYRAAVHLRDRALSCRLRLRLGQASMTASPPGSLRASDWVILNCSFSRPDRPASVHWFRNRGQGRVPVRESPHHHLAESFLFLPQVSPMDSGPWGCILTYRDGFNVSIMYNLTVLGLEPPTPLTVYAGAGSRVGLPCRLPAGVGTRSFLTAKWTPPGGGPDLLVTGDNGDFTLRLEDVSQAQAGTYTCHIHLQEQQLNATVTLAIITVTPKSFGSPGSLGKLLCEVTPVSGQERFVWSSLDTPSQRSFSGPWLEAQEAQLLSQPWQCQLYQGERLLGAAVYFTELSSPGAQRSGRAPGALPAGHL

T2: LAG3 on cells (recombinant CHO cells expressing Lag3) (human, UniProt P18627 29-525)
T2 construct: The cell ELISA paragraphs say only 'Lag3'; also called CHO-LAG3; Lag3 cells
T2 sequence: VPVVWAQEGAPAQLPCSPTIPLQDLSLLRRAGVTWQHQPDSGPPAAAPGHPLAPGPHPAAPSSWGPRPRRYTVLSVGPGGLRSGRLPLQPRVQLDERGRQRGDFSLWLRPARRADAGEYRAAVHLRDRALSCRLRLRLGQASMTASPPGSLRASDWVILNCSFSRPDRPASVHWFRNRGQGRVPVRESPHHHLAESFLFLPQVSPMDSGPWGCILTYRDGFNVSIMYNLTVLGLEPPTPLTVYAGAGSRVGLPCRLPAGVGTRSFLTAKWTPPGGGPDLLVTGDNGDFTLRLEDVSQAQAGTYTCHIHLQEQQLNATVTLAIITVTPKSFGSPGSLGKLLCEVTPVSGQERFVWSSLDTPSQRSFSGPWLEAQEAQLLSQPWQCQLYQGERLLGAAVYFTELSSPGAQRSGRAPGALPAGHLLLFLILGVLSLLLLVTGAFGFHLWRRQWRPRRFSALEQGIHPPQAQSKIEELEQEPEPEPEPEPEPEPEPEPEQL

T3: biotinylated-Lag3 (UniProt P18627 23-450, limits assumed, biotinylated)
T3 construct: Probably a human LAG3 ECD construct; also called Lag3 (MHCII/ELISA)
T3 sequence (looked up): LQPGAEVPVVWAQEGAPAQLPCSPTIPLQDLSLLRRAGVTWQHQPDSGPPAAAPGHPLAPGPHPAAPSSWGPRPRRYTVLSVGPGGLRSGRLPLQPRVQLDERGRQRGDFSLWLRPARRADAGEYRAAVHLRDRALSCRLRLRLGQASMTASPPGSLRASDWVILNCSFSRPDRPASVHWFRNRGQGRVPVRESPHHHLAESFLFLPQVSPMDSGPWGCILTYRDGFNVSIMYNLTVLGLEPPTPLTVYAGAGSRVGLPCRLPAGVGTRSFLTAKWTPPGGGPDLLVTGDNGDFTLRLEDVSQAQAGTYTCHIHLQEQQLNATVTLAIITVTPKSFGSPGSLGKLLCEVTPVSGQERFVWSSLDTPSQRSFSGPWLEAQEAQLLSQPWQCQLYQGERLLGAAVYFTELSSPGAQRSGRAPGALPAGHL


Legend:
[1] = molecular target: T4, biotinylated cynoPD1-ECD-Biotin (cynomolgus, UniProt B0LAJ3 25-170, biotinylated; the site and any Avi or His tag are not stated in the passages shown); assay: ELISA on coated cynoPD1-ECD-Biotin
T4 construct: also called cyPD1
T4 sequence (B0LAJ3 entry or part of it limits assumed): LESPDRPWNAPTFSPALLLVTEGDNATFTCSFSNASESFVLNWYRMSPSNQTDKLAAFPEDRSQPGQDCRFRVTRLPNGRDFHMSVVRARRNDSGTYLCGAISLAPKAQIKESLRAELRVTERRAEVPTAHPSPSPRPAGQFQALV
Description: (§1) After washing (3×90 μl/well with PBST-buffer) 25 μl/well goat-anti-human H+L-POD (JIR, JIR109-036-088) was added in 1:1000 dilution and incubated at RT for 1 h on shaker. After washing (3×90 μl/well with PBST-buffer) 25 μl/well TMB substrate (Roche, 11835033001) was added and incubated until OD 2-3. Measurement took place at 370/492 nm.

[2] = molecular target: T5, biotinylated PD1-ECD-AviHis (human, UniProt Q15116 25-170, biotinylated); assay: ELISA on coated biotinylated PD1-ECD-AviHis
T5 construct: also called huPD1; hu PD1; not shown: Avi-His tag
T5 sequence (Q15116 25-170): as the sequence (B0LAJ3 entry or part of it limits assumed) above, with E2D, A10P, L19V, A35T, R75Q, A144T counted along it
Description: as §1, with “JIR109-036-088)/Sheep-anti-mouse-POD (GE Healthcare; NA9310)” for “JIR109-036-088)”, “1:2000/1:1000” for “1:1000”, “(Roche Catalogue No.” for “(Roche,”

[3] = molecular target: T5, biotinylated PD1-ECD-AviHis; assay: PD-L2 replacing ELISA on coated PD1-ECD-AviHis; competitor PD-L2 Fc chimera
Description: as §1, with “109-036-088)” for “JIR109-036-088)”, “1:2000” for “1:1000”, “TMB (tetramethylbenzidine)” for “TMB”, “#11835033001)” for “11835033001)”

[4] = molecular target: T1, recombinant Human LAG-3 Fc Chimera …; assay: ELISA on coated Human LAG-3 Fc Chimera (rel. EC50)
Description: After washing (3×90 μl/well with PBST-buffer) each well was incubated with 90 μl blocking buffer (PBS+2% BSA+0.05% Tween 20) for 1 h at room temperature. […] After washing (3×90 μl/well with PBST-buffer) 25 μl/well goat anti-Human Ig κ chain antibody-HRP conjugate (Milipore, AP502P) was added in a 1:2000 dilution and incubated at RT for 1 h. After washing (3×90 μl/well with PBST-buffer) 25 μl/well TMB substrate (Roche, 11835033001) was added and incubated for 2-10 min. Measurement took place on a Tecan Safire 2 instrument at 370/492 nm.

[5] = molecular target: T5, biotinylated PD1-ECD-AviHis; assay: ELISA on coated biotinylated PD1-ECD-AviHis (rel. EC50)
Description: After washing (3×90 μl/well with PBST-buffer) 25 μl/well goat-anti-human H+L-POD (JIR, JIR109-036-098) was added in 1:5000 dilution and incubated at RT for 1 h on a shaker. After washing (3×90 μl/well with PBST-buffer) 25 μl/well of TMB substrate (Roche, 11835033001) was added and incubated until OD 2-3. Measurement took place at 370/492 nm.

[6] = molecular target: T2, LAG3 on cells (recombinant CHO cells …); assay: cell ELISA on recombinant CHO cells expressing Lag3 (rel. EC50)
Description: After washing (1×90 μl in PBST) cells were fixed by addition of 30 μl/well glutaraldehyde to a final concentration of 0.05% (Sigma Cat.No: G5882), 10 min at room temperature. After washing (3×90 μl/well with PBST-buffer) 25 μl/well goat anti-Human Ig κ chain antibody-HRP conjugate (Milipore, AP502P) was added in a 1:1000 dilution and incubated at RT for 1 h. After washing (3×90 μl/well with PBST-buffer) 25 μl/well TMB substrate (Roche, 11835033001) was added and incubated for 6-10 min. Measurement took place on a Tecan Safire 2 instrument at 370/492 nm.

[7] = molecular target: T6, full-length human PD1 on cells (human, UniProt Q15116 25-288); assay: cell ELISA on CHO-K1 cells expressing full-length human PD1 (rel. EC50)
T6 construct: also called CHO-PD1
T6 sequence (Q15116 25-288 limits assumed): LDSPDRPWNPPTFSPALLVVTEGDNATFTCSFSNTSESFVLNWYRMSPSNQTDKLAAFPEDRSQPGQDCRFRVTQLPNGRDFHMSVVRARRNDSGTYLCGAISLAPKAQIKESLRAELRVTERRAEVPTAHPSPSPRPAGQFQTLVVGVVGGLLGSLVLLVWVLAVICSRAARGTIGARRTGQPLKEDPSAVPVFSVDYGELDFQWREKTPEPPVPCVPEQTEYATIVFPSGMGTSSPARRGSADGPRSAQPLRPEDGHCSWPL
Description: (to avoid internalization). After washing carefully (1×90 μl/well PBST) cells were fixed by adding 30 μl/well 0.05% Glutaraldehyde (Sigma, Cat.No: G5882, 25%) diluted in 1×PBS-buffer and incubated for 10 min at RT. After washing (3×90 μl/well PBST) 25 μl/well secondary antibody was added for detection: goat-anti-human H+L-POD (JIR, JIR109-036-088)/Sheep-anti-mouse-POD (GE NA9310) followed by 1 h incubation at RT on shaker. After washing (3×90 μl/well PBST) 25 μl/well TMB substrate solution (Roche 11835033001) was added and incubated until OD 1.0-2.0. Plates were measured at 370/492 nm.

[8] = molecular target: T3, biotinylated-Lag3; assay: ELISA, inhibition of biotinylated-Lag3 binding to MHC-II on A375 cells (competitor MHC-II)
Description: 25 μl/well of A375 cells (10000 cells/well) were seeded into tissue culture treated 384-well plates (Corning, 3701) and incubated at 37° C. overnight. […] After washing (1×90 μl in PBST) cells were fixed by addition of 30 μl/well glutaraldehyde to a final concentration of 0.05% (Sigma Cat.No: G5882), 10 min at room temperature. After washing (3×90 μl/well with PBST-buffer) 25 μl/well Poly-HRP40-Streptavidin (Fitzgerald, 65R-S104PHRPx) was added in a 1:2000 or 1:8000 dilution and incubated at RT for 1 h. After washing (3×90 μl/well with PBST-buffer) 25 μl/well TMB substrate (Roche, 11835033001) was added and incubated for 2 to 10 min. Measurement took place on a Tecan Safire 2 instrument at 370/492 nm.

Binder	EC50 [1]	EC50 [2]	IC50 [3]	EC50 [4]	EC50 [5]	EC50 [6]	EC50 [7]	IC50 [8]
PD1-0078 (antibody, V domains shown) VH: QVQLQQPGAELVKPGASVKMSCKASGYTFTSTWMHWVKQRPGQGLEWIGAIDPSDSYTTYNQKFKGKATLTVDTSSTTAYMQLSSLTSEDSAVYYCTRSPFDYWGQGTTLTVSS VL: DIVMTQSHKFMSTSVGDRVSITCKASQDVSTAVAWYQQKPGQSPKLLIYSASYRYTGVPDRFTGSGSGTDFTFAISSVQAEDLAVYYCQQHYSHPFTFGSGTKLEIK	0.0224 µg/mL	0.0263 µg/mL	0.086 µg/mL	–	–	–	–	–
PD1/LAG3 0222 (bispecific antibody, human IgG1, kappa, L234A L235A, 1+1 CrossMAb Vh-VL; also called PD1(0069)/aLAG3(25F7) 1+1; PD1-0069/LAG3 25F7 (1 + 1)) heavy 1: not shown heavy 2: QVQLQQWGAGLLKPSETLSLTCAVYGGSFSDYYWNWIRQPPGKGLEWIGEINHNGNTNSNPSLKSRVTLSLDTSKNQFSLKLRSVTAADTAVYYCAFGYSDYEYNWFDPWGQGTLVTVSSASTKGPSVFPLAPSSKSTSGGTAALGCLVEDYFPEPVTVSWNSGALTSGVHTFPAVLQSSGLYSLSSVVTVPSSSLGTQTYICNVNHKPSNTKVDEKVEPKSCDKTHTCPPCPAPEAAGGPSVFLFPPKPKDTLMISRTPEVTCVVVDVSHEDPEVKFNWYVDGVEVHNAKTKPREEQYNSTYRVVSVLTVLHQDWLNGKEYKCKVSNKALGAPIEKTISKAKGQPREPQVCTLPPSRDELTKNQVSLSCAVKGFYPSDIAVEWESNGQPENNYKTTPPVLDSDGSFFLVSKLTVDKSRWQQGNVFSCSVMHEALHNHYTQKSLSLSPGK light 1: QVQLQQSGPELVRPGVSVKISCKGSGYTFTDYAMHWVKQSHARTLEWIGVISTYSGDTNYNQKFKDKATMTVDKSSSTAYLELARMTSEDSAIYYCARLGITTGFAYWGQGTLVTVSAASVAAPSVFIFPPSDEQLKSGTASVVCLLNNFYPREAKVQWKVDNALQSGNSQESVTEQDSKDSTYSLSSTLTLSKADYEKHKVYACEVTHQGLSSPVTKSFNRGEC light 2: not shown	–	–	–	1.14 nM	0.16 nM	0.72 nM	0.28 nM	0.77 nM

Continued, values first:

EC50 [1]	EC50 [2]	IC50 [3]	EC50 [4]	EC50 [5]	EC50 [6]	EC50 [7]	IC50 [8]	Binder
–	–	–	0.05 nM	0.04 nM	0.48 nM	0.36 nM	0.52 nM	PD1/LAG3 9010 (bispecific antibody, human IgG1, kappa, L234A L235A, 2+2 format) heavy: not shown light 1: DIVMTQSPDSLAVSLGERATINCKASESVDTSDNSFIHWYQQKPGQSPKLLIYRSSTLESGVPDRFSGSGSGTDFTLTISSLQAEDVAVYYCQQNYDVPWTFGQGTKVEIKSSASTKGPSVFPLAPSSKSTSGGTAALGCLVKDYFPEPVTVSWNSGALTSGVHTFPAVLQSSGLYSLSSVVTVPSSSLGTQTYICNVNHKPSNTKVDKKVEPKSC light 2: not shown
–	–	–	0.86 nM	0.04 nM	0.86 nM	0.06 nM	0.79 nM	PD1/LAG3 0224 (bispecific antibody, human IgG1, kappa, L234A L235A, 1+1 CrossMAb Vh-VL; also called PD1(0098)/aLAG3(25F7) 1+1; PD1-0098/LAG3 25F7 (1 + 1)) heavy 1: not shown heavy 2: QVQLQQWGAGLLKPSETLSLTCAVYGGSFSDYYWNWIRQPPGKGLEWIGEINHNGNTNSNPSLKSRVTLSLDTSKNQFSLKLRSVTAADTAVYYCAFGYSDYEYNWFDPWGQGTLVTVSSASTKGPSVFPLAPSSKSTSGGTAALGCLVEDYFPEPVTVSWNSGALTSGVHTFPAVLQSSGLYSLSSVVTVPSSSLGTQTYICNVNHKPSNTKVDEKVEPKSCDKTHTCPPCPAPEAAGGPSVFLFPPKPKDTLMISRTPEVTCVVVDVSHEDPEVKFNWYVDGVEVHNAKTKPREEQYNSTYRVVSVLTVLHQDWLNGKEYKCKVSNKALGAPIEKTISKAKGQPREPQVCTLPPSRDELTKNQVSLSCAVKGFYPSDIAVEWESNGQPENNYKTTPPVLDSDGSFFLVSKLTVDKSRWQQGNVFSCSVMHEALHNHYTQKSLSLSPGK light 1: DVQLQESGPGLVKPSQSLSLTCTVTGYSITSDYAWNWIRQFPGDKLEWLGYITYSGFTNYNPSLKSRISISRDTSKNQFFLQLNSVATEDTATYYCARWHGSAPWYFDYWGRGTTLTVSSASVAAPSVFIFPPSDEQLKSGTASVVCLLNNFYPREAKVQWKVDNALQSGNSQESVTEQDSKDSTYSLSSTLTLSKADYEKHKVYACEVTHQGLSSPVTKSFNRGEC light 2: not shown
